Measured values: patent US20120077751

What was measured:
[1] = target: GST fusion protein of the GluR1 carboxyl tail (GST-GluR1CT) (UniProt P19490)
[2] = system: GST back bone (GST) [GST: P08515]
[3] = target: GST fusion protein of the GluR2 carboxyl tail (GST-GluR2CT) (UniProt P19491)
[4] = system: GST-GluR23Y (GST-YKEGYNVYG) [GST: P08515]
[5] = system: T1, GST-GluR23A (GST-AKEGANVAG)
T1 sequence: AKEGANVAG

GST fusion protein of the GluR1 carboxyl tail (GST-GluR1CT), sequence (P19490 827-907): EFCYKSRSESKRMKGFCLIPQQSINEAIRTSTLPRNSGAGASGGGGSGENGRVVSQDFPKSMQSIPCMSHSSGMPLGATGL
GST fusion protein of the GluR2 carboxyl tail (GST-GluR2CT), sequence (P19491 834-883): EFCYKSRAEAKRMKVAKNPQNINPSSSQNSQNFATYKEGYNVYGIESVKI

In the case of active recombinant pp60 c-Src, the “in vitro kinase assay, anti-phosphotyrosine immunoblot” value (“in vitro kinase assay” below) [1] is reported as “GST-GluR2CT, but not GST-GluR1CT or GST alone, is specifically phosphorylated by Src kinase”, the “in vitro kinase assay” value [2] is reported as “GST-GluR2CT, but not GST-GluR1CT or GST alone, is specifically phosphorylated by Src kinase” and the “in vitro kinase assay” value [3] is reported as “GST-GluR2CT, but not GST-GluR1CT or GST alone, is specifically phosphorylated by Src kinase”. For the same substance, the “in vitro kinase assay” value [4] was “the recombinant Src kinase phosphorylated a GST fusion protein containing the nine amino-acid stretch including all three GluR2-unique tyrosine residues” and the “in vitro kinase assay” value [5] was “Src-mediated phosphorylation was abolished when these tyrosine residues were mutated into alanines”.
